Article PMC11004252

Target: phospho-Ser 2 carboxy-terminal domain (CTD) RNA polymerase II (human (endogenous in hSAECs)), P24928
Experiment: proximity ligation; Duolink in situ PLA, mouse anti-IRF1 and rabbit anti-pSer2 Pol II Abs, fixed and permeabilized hSAECs, mock or RSV infected (MOI 1, 24 h), solvent
Conditions: remark: other sources report otherwise

B1: interferon regulatory factor 1 (IRF1), P10914 1-325 (natural protein)
chain: MPITRMRMRPWLEMQINSNQIPGLIWINKEEMIFQIPWKHAAKHGWDINKDACLFRSWAIHTGRYKAGEKEPDPKTWKANFRCAMNSLPDIEEVKDQSRNKGSSAVRVYRMLPPLTKNQRKERKSKSSRDAKSKAKRKSCGDSSPDTFSDGLSSSTLPDDHSSYTVPGYMQDLEVEQALTPALSPCAVSSTLPDWHIPVEVVPDSTSDLYNFQVSPMPSTSEATTDEDEEGKLPEDIMKLLEQSEWQPTNVDGKGYLLNEPGVQPTSVYGDFSCKEEPEIDSPGGDIGLSLQRVFTDLKNMDATWLDSLLTPVRLPSIQAIPCAP
modifications: here or on the partner: phospho-Ser 2 of the carboxy-terminal domain (CTD)
**Q.** Which PLA foci/nucleus (RSV infected) does the source give for B1 here?
**A.** 24 foci/nucleus

**Q.** What about the PLA foci/nucleus (mock infected) of the same binder?
**A.** 6.3 foci/nucleus

**Q.** What about the fold increase of PLA complex, RSV against mock of the same binder?
**A.** 25 fold

**Q.** What about the percent of cells with PLA complexes (uninfected) of the same binder?
**A.** > 90 % of cells
